B1: N^α1-[(4S)-4-carboxy-4-(19-carboxynonadecanoylamino)butanoyl]-[Glu14,Arg17,Pro21,Pro27,His34]-h-amylin (peptide)
peptide: {C20 diacid-γGlu}-KCNTATCATQRLAEFLRHSSPNFGAIPSSTNVGHNTY-NH2
modifications: disulfide 2-7
SMILES: CC[C@H](C)[C@H](NC(=O)[C@H](C)NC(=O)CNC(=O)[C@H](Cc1ccccc1)NC(=O)[C@H](CC(N)=O)NC(=O)[C@@H]1CCCN1C(=O)[C@H](CO)NC(=O)[C@H](CO)NC(=O)[C@H](Cc1c[nH]cn1)NC(=O)[C@H](CCCNC(=N)N)NC(=O)[C@H](CC(C)C)NC(=O)[C@H](Cc1ccccc1)NC(=O)[C@H](CCC(=O)O)NC(=O)[C@H](C)NC(=O)[C@H](CC(C)C)NC(=O)[C@H](CCCNC(=N)N)NC(=O)[C@H](CCC(N)=O)NC(=O)[C@@H](NC(=O)[C@H](C)NC(=O)[C@@H]1CSSC[C@H](NC(=O)[C@H](CCCCN)NC(=O)CC[C@H](NC(=O)CCCCCCCCCCCCCCCCCCC(=O)O)C(=O)O)C(=O)N[C@@H](CC(N)=O)C(=O)N[C@@H]([C@@H](C)O)C(=O)N[C@@H](C)C(=O)N[C@@H]([C@@H](C)O)C(=O)N1)[C@@H](C)O)C(=O)N1CCC[C@H]1C(=O)N[C@@H](CO)C(=O)N[C@@H](CO)C(=O)N[C@H](C(=O)N[C@@H](CC(N)=O)C(=O)N[C@H](C(=O)NCC(=O)N[C@@H](Cc1c[nH]cn1)C(=O)N[C@@H](CC(N)=O)C(=O)N[C@H](C(=O)N[C@@H](Cc1ccc(O)cc1)C(N)=O)[C@@H](C)O)C(C)C)[C@@H](C)O
notes: modifications are with respect to human amylin; also called compound 17
B2: N^α1-[(4S)-4-carboxy-4-(19-carboxynonadecanoylamino)butanoyl]-[Glu14,Arg17,Pro21,Pro27,Pro29]-h-amylin (peptide)
peptide: {C20 diacid-γGlu}-KCNTATCATQRLAEFLRHSSPNFGAIPSPTNVGSNTY-NH2
modifications: disulfide 2-7
SMILES: CC[C@H](C)[C@H](NC(=O)[C@H](C)NC(=O)CNC(=O)[C@H](Cc1ccccc1)NC(=O)[C@H](CC(N)=O)NC(=O)[C@@H]1CCCN1C(=O)[C@H](CO)NC(=O)[C@H](CO)NC(=O)[C@H](Cc1c[nH]cn1)NC(=O)[C@H](CCCNC(=N)N)NC(=O)[C@H](CC(C)C)NC(=O)[C@H](Cc1ccccc1)NC(=O)[C@H](CCC(=O)O)NC(=O)[C@H](C)NC(=O)[C@H](CC(C)C)NC(=O)[C@H](CCCNC(=N)N)NC(=O)[C@H](CCC(N)=O)NC(=O)[C@@H](NC(=O)[C@H](C)NC(=O)[C@@H]1CSSC[C@H](NC(=O)[C@H](CCCCN)NC(=O)CC[C@H](NC(=O)CCCCCCCCCCCCCCCCCCC(=O)O)C(=O)O)C(=O)N[C@@H](CC(N)=O)C(=O)N[C@@H]([C@@H](C)O)C(=O)N[C@@H](C)C(=O)N[C@@H]([C@@H](C)O)C(=O)N1)[C@@H](C)O)C(=O)N1CCC[C@H]1C(=O)N[C@@H](CO)C(=O)N1CCC[C@H]1C(=O)N[C@H](C(=O)N[C@@H](CC(N)=O)C(=O)N[C@H](C(=O)NCC(=O)N[C@@H](CO)C(=O)N[C@@H](CC(N)=O)C(=O)N[C@H](C(=O)N[C@@H](Cc1ccc(O)cc1)C(N)=O)[C@@H](C)O)C(C)C)[C@@H](C)O
notes: modifications are with respect to human amylin; also called compound 37
B3: N^α1-[(4S)-4-carboxy-4-(19-carboxynonadecanoylamino)butanoyl]-[Glu14,Arg17,Pro21,Pro27,His35]-h-amylin (peptide)
peptide: {C20 diacid-γGlu}-KCNTATCATQRLAEFLRHSSPNFGAIPSSTNVGSHTY-NH2
modifications: disulfide 2-7
SMILES: CC[C@H](C)[C@H](NC(=O)[C@H](C)NC(=O)CNC(=O)[C@H](Cc1ccccc1)NC(=O)[C@H](CC(N)=O)NC(=O)[C@@H]1CCCN1C(=O)[C@H](CO)NC(=O)[C@H](CO)NC(=O)[C@H](Cc1c[nH]cn1)NC(=O)[C@H](CCCNC(=N)N)NC(=O)[C@H](CC(C)C)NC(=O)[C@H](Cc1ccccc1)NC(=O)[C@H](CCC(=O)O)NC(=O)[C@H](C)NC(=O)[C@H](CC(C)C)NC(=O)[C@H](CCCNC(=N)N)NC(=O)[C@H](CCC(N)=O)NC(=O)[C@@H](NC(=O)[C@H](C)NC(=O)[C@@H]1CSSC[C@H](NC(=O)[C@H](CCCCN)NC(=O)CC[C@H](NC(=O)CCCCCCCCCCCCCCCCCCC(=O)O)C(=O)O)C(=O)N[C@@H](CC(N)=O)C(=O)N[C@@H]([C@@H](C)O)C(=O)N[C@@H](C)C(=O)N[C@@H]([C@@H](C)O)C(=O)N1)[C@@H](C)O)C(=O)N1CCC[C@H]1C(=O)N[C@@H](CO)C(=O)N[C@@H](CO)C(=O)N[C@H](C(=O)N[C@@H](CC(N)=O)C(=O)N[C@H](C(=O)NCC(=O)N[C@@H](CO)C(=O)N[C@@H](Cc1c[nH]cn1)C(=O)N[C@H](C(=O)N[C@@H](Cc1ccc(O)cc1)C(N)=O)[C@@H](C)O)C(C)C)[C@@H](C)O
notes: modifications are with respect to human amylin; also called compound 18
B4: N^α1-[(4S)-4-carboxy-4-(19-carboxynonadecanoylamino)butanoyl]-[Glu14,Arg17,Pro21,Pro27,Pro34]-h-amylin (peptide)
peptide: {C20 diacid-γGlu}-KCNTATCATQRLAEFLRHSSPNFGAIPSSTNVGPNTY-NH2
modifications: disulfide 2-7
SMILES: CC[C@H](C)[C@H](NC(=O)[C@H](C)NC(=O)CNC(=O)[C@H](Cc1ccccc1)NC(=O)[C@H](CC(N)=O)NC(=O)[C@@H]1CCCN1C(=O)[C@H](CO)NC(=O)[C@H](CO)NC(=O)[C@H](Cc1c[nH]cn1)NC(=O)[C@H](CCCNC(=N)N)NC(=O)[C@H](CC(C)C)NC(=O)[C@H](Cc1ccccc1)NC(=O)[C@H](CCC(=O)O)NC(=O)[C@H](C)NC(=O)[C@H](CC(C)C)NC(=O)[C@H](CCCNC(=N)N)NC(=O)[C@H](CCC(N)=O)NC(=O)[C@@H](NC(=O)[C@H](C)NC(=O)[C@@H]1CSSC[C@H](NC(=O)[C@H](CCCCN)NC(=O)CC[C@H](NC(=O)CCCCCCCCCCCCCCCCCCC(=O)O)C(=O)O)C(=O)N[C@@H](CC(N)=O)C(=O)N[C@@H]([C@@H](C)O)C(=O)N[C@@H](C)C(=O)N[C@@H]([C@@H](C)O)C(=O)N1)[C@@H](C)O)C(=O)N1CCC[C@H]1C(=O)N[C@@H](CO)C(=O)N[C@@H](CO)C(=O)N[C@H](C(=O)N[C@@H](CC(N)=O)C(=O)N[C@H](C(=O)NCC(=O)N1CCC[C@H]1C(=O)N[C@@H](CC(N)=O)C(=O)N[C@H](C(=O)N[C@@H](Cc1ccc(O)cc1)C(N)=O)[C@@H](C)O)C(C)C)[C@@H](C)O
notes: modifications are with respect to human amylin; also called compound 32
B5: N^α1-[(4S)-4-carboxy-4-(19-carboxynonadecanoylamino)butanoyl]-[Glu14,Arg17,Pro21,Pro27,Pro31]-h-amylin (peptide)
peptide: {C20 diacid-γGlu}-KCNTATCATQRLAEFLRHSSPNFGAIPSSTPVGSNTY-NH2
modifications: disulfide 2-7
SMILES: CC[C@H](C)[C@H](NC(=O)[C@H](C)NC(=O)CNC(=O)[C@H](Cc1ccccc1)NC(=O)[C@H](CC(N)=O)NC(=O)[C@@H]1CCCN1C(=O)[C@H](CO)NC(=O)[C@H](CO)NC(=O)[C@H](Cc1c[nH]cn1)NC(=O)[C@H](CCCNC(=N)N)NC(=O)[C@H](CC(C)C)NC(=O)[C@H](Cc1ccccc1)NC(=O)[C@H](CCC(=O)O)NC(=O)[C@H](C)NC(=O)[C@H](CC(C)C)NC(=O)[C@H](CCCNC(=N)N)NC(=O)[C@H](CCC(N)=O)NC(=O)[C@@H](NC(=O)[C@H](C)NC(=O)[C@@H]1CSSC[C@H](NC(=O)[C@H](CCCCN)NC(=O)CC[C@H](NC(=O)CCCCCCCCCCCCCCCCCCC(=O)O)C(=O)O)C(=O)N[C@@H](CC(N)=O)C(=O)N[C@@H]([C@@H](C)O)C(=O)N[C@@H](C)C(=O)N[C@@H]([C@@H](C)O)C(=O)N1)[C@@H](C)O)C(=O)N1CCC[C@H]1C(=O)N[C@@H](CO)C(=O)N[C@@H](CO)C(=O)N[C@H](C(=O)N1CCC[C@H]1C(=O)N[C@H](C(=O)NCC(=O)N[C@@H](CO)C(=O)N[C@@H](CC(N)=O)C(=O)N[C@H](C(=O)N[C@@H](Cc1ccc(O)cc1)C(N)=O)[C@@H](C)O)C(C)C)[C@@H](C)O
notes: modifications are with respect to human amylin; also called compound 31

Numbered stars: 1 amine (or outer) side, 2 acyl side, 3 side chain; on linkers, the order of the positions; unused ones are H or OH. Bridge positions count the residues as written; N and C are the ends. * marks the point of attachment. C20 diacid = O=C(O)CCCCCCCCCCCCCCCCCCC(=O)*; γGlu = O=C(O)[C@H](CCC(=O)[*:2])N[*:1]

The IC50 is the concentration at which inhibition is half-maximal.

The target of the first test is T1, rat calcitonin receptor (rat, UniProt P32214 25-516).
T1 construct: whole, on cells; Membranes of BHK tk'ts 13 cells transiently transfected with the rat calcitonin receptor; also called rCTR; rat calcitonin (a) receptor
T1 sequence (looked up): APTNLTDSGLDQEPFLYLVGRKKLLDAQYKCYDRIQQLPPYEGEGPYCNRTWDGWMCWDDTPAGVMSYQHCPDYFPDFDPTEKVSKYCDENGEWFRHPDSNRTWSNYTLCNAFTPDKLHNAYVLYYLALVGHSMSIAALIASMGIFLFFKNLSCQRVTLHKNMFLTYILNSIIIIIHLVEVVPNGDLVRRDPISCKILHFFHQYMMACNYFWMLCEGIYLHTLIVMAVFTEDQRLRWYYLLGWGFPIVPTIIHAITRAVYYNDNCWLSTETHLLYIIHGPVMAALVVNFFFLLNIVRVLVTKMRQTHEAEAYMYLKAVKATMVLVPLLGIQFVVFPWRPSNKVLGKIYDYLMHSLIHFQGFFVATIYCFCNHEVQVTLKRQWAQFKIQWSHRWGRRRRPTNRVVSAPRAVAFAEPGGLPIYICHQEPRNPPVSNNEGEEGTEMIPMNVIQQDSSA
In words: SPA competition vs 125I-calcitonin, membranes with rat CTR (Assay VIII).
In the case of B1, the IC50 was found to be 97.2 nM.

Take B2: the IC50 came to 7.35 nM.

Consider B3, for which the half-maximal inhibitory concentration (IC50) was determined as 13 nM.

With B4, the IC50 is 5.98 nM.

Regarding B5, the IC50 came to 26.5 nM.

For another test, the target named is T2, rat amylin receptor (rat calcitonin receptor + rat RAMP 3) (rat, UniProt P32214 25-516; Q9JJ73 23-147).
T2 construct: whole, on cells; Membranes of BHK tk'ts 13 cells transiently transfected with the rat calcitonin receptor and rat RAMP 3; also called rAmylin-R; rat amylin 3(a) receptor
T2 sequence (looked up) 1: T1 sequence (looked up)
T2 sequence (looked up) 2: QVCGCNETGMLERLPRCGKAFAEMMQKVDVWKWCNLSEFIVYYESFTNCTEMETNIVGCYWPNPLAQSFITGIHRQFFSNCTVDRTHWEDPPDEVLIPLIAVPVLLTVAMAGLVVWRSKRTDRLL
In words: SPA competition vs 125I-rat amylin, membranes with rat CTR + rat RAMP3 (Assay VI).
In the case of B1, the IC50 amounted to 2.71 nM.

For B2, the IC50 stood at 0.514 nM.

As to B3, the IC50 was 0.476 nM.

For the molecule B4, the IC50 came to 0.176 nM.

Turning to B5, the half-inhibitory concentration (IC50) turned out to be 0.619 nM.

A further test concerns the target T3, human calcitonin receptor (human, UniProt P30988 25-474).
T3 construct: whole, on cells; Membranes of a BHK tk'ts 13 cell line stably transfected with the human calcitonin receptor; also called hCTR; hCT
T3 sequence (looked up): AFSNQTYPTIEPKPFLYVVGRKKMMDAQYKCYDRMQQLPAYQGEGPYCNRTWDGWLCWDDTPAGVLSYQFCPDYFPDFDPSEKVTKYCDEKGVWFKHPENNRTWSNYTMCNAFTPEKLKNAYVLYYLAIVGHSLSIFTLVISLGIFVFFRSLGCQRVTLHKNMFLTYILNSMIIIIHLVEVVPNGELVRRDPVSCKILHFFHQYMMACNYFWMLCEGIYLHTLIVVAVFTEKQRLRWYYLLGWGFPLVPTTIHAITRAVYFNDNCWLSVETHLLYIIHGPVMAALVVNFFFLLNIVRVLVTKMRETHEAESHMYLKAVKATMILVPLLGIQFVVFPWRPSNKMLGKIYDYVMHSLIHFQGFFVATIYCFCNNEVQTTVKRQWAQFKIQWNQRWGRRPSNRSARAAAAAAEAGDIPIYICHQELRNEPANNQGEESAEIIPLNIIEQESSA
Briefly: IC50 at hCTR divided by IC50 at hAmylin-R (reference). A digest of the protocol: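 Competition binding by SPA uses membrane preparations (35 ng/μL final) in pH 7.4 Hepes buffer with 1 mM CaCl2 and 5 mM MgCl₂. Incubation lasts 120 min at 25° C, and IC₅₀ comes from one-site fitting.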
Turning to B1, the “Ratio hCT/hAmylin binding” value came to 12.5.

With B2, the “Ratio hCT/hAmylin binding” value worked out at 2.3.

On to B3, for which the “Ratio hCT/hAmylin binding” value stood at 9.2.

Take B4: the “Ratio hCT/hAmylin binding” value turned out to be 10.9.

Consider B5, for which the “Ratio hCT/hAmylin binding” value stood at 16.

The target in the next test is T1, rat calcitonin receptor. Briefly: IC50 at rCTR divided by IC50 at rAmylin-R (reference).
For the molecule B1, the “Ratio rCT/rAmylin binding” value was determined as 35.9.

In the case of B2, the “Ratio rCT/rAmylin binding” value is 14.3.

Consider B3, for which the “Ratio rCT/rAmylin binding” value came to 27.3.

Turning to B4, the “Ratio rCT/rAmylin binding” value amounted to 34.

B5: the “Ratio rCT/rAmylin binding” value amounted to 42.8.

The values above are taken from patent US20140087995A1 (published 2014).
